# T1: recombinant large extracellular loop EC2 of human CD151 (human, UniProt P48509 113-221, limits assumed)
# T1 construct: also called recombinant EC2 loop; extracellular loop 2
# T1 sequence (looked up): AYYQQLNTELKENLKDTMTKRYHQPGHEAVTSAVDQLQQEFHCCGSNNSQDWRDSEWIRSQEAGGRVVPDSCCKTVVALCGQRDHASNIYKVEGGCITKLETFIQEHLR
# How the values were obtained:
# [1] = molecular target: human CD151 protein (human) (UniProt P48509); assay: flow cytometry on DU145 cells, antibody at 10 ug/ml
# [2] = molecular target: human CD151 protein (human) (UniProt P48509); assay: flow cytometry on A549 cells, antibody at 10 ug/ml
# [3] = molecular target: human CD151 protein (human) (UniProt P48509); assay: flow cytometry on BxPC3 cells, antibody at 10 ug/ml
# [4] = molecular target: human CD151 protein (human) (UniProt P48509); assay: flow cytometry on PC3 cells, undiluted hybridoma supernatant
# [5] = molecular target: human CD151 protein (human) (UniProt P48509); assay: flow cytometry on NIH3T3-CD151 cells, antibody at 10 ug/ml
# [6] = molecular target: T1, recombinant large extracellular loop …; assay: competition ELISA on recombinant EC2; competitor murine 214B2 at 80 ng/ml, detected with anti-mouse IgG
# Procedure: (§1) Cross-competition experiments were further performed by ELISA to evaluate the ability of the chimeric antibodies c214B2[IgG1] and c203B6[IgG1] to inhibit the binding of their corresponding murine forms to the recombinant EC2 loop. Briefly, 96-well ELISA plates were coated with recombinant EC2 at 5 μg/ml in PBS overnight at 4° C. Murine Mabs 203B6 and 214B2 at 80 ng/ml were further incubated in the absence or in the presence of increasing concentrations of their corresponding chimeric antibody forms, ranging from 0.01 to 20 μg/ml, for 1 h at 37° C. For control experiments, no murine antibody was added. Horseradish peroxidase-conjugated polyclonal goat anti-mouse IgG was added at a 1/5000 dilution in PBS and incubated for 1 h at 37° C. After incubation with the peroxidase substrate TMB for 10 min at room temperature, the reaction was stopped with 1 M sulfuric acid and the optical density at 450 nm was measured. […] IC₅₀ values, calculated by using the GraphPad Prism software, were 0.69 μg/ml and 0.71 μg/ml for c214B2[IgG1] and c203B6[IgG1], respectively.
# [7] = molecular target: human CD151 protein (human) (UniProt P48509); assay: flow cytometry on PC3 cells
# [8] = molecular target: T1, recombinant large extracellular loop …; assay: competition ELISA on recombinant EC2; competitor murine 203B6 at 80 ng/ml, detected with anti-mouse IgG
# Procedure: as §1
# [9] = molecular target: T1, recombinant large extracellular loop …; assay: cross-blocking ELISA on recombinant EC2; competitor murine 214B2
# Procedure: FIG. 18 illustrates the Cross blocking of the murine antibody […] by the chimeric […] and different variants of the humanized 214B2. The activity of the humanized variants of 214B2 (hz214B2) to cross block the parental antibody m214B2 was evaluated by ELISA using the recombinant extracellular loop 2 (EC2) of human antigen CD151. The activity of the humanized variants was compared to the chimeric 214B2.
# The affinity of the humanized variants to the epitope of the parental antibody was evaluated by cross blocking the parental antibody with the humanized antibody. The parental antibody concentration was kept constant and the humanized antibody serial diluted. The chimeric antibody served as a positive control and as a reference in these experiments. The humanized antibodies were evaluated by there affinity in ELISA and flow cytometry assays. In the ELISA based assay the second extracellular domain (EC2) of the human CD151 was expressed recombinantly and purified by the six histidine tag. Purified EC2 protein was used to coated ELISA plates and binding of humanized anti-CD151 antibodies was measured indirectly by detecting the murine parental antibody with HRP conjugated anti-mouse IgG antibodies. Binding to CD151 of humanized anti-CD151 antibodies was evaluated by flow cytometry using the human prostate cancer cell line PC3. The affinity was determined by cross blocking the biotinylated parental murine anti-CD151 antibody. The biotinylated antibody was detected using fluorescein conjugated streptavidin. Affinity constant (Kd) was measured by BIACore analysis.
# Sequence of human CD151 protein (human) (P48509 whole entry): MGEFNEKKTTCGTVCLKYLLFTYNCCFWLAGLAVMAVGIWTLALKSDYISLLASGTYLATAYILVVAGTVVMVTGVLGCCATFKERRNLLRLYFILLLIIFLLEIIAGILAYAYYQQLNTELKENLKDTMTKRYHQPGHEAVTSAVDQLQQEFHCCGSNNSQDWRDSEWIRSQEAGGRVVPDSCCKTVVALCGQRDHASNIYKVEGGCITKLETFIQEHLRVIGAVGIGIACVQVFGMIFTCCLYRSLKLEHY
binder,measurement,setting,value
"murine antibody 214B2 (antibody, mouse IgG1, V domains shown) VH: QVQLQQPGSVLVRPGASVKLSCKASGYTFTSSSMHWAKQRPGQGLEWIGEIHPNSGNTNNNEKFKGKATLTVDTSSSTAYVDLSSLSSEDSAVYYCARARSFYYAMDCWGQGTSVTVSS VL: NIVMTQSPKSMSMSVGERVTLSCKASENVGTYVSWYQQKPEQSPKLLIYGASNRYTGVPDRFTGSGSATDFTLTISSVQAEDLADYHCGQTYSFPYTFGGGTKLEIK",MFI,[1],1330
same,MFI,[2],820
same,MFI,[3],849
same,MFI,[4],1000
same,MFI,[5],748
"chimeric antibody c214B2[IgG1] (antibody, V domains shown, Mouse variable domains fused to human IgG1 / Ckappa constant domains; also called chimeric 214B2; chimeric 241B2) VH: QVQLQQPGSVLVRPGASVKLSCKASGYTFTSSSMHWAKQRPGQGLEWIGEIHPNSGNTNNNEKFKGKATLTVDTSSSTAYVDLSSLSSEDSAVYYCARARSFYYAMDCWGQGTSVTVSS VL: NIVMTQSPKSMSMSVGERVTLSCKASENVGTYVSWYQQKPEQSPKLLIYGASNRYTGVPDRFTGSGSATDFTLTISSVQAEDLADYHCGQTYSFPYTFGGGTKLEIKR",IC50,[6],0.69 µg/mL
same,antibody concentration at which the binding plateau was reached,[7],2.5 µg/mL
"murine antibody 203B6 (antibody, mouse IgG1, V domains shown) VH: EVKLVESGGGLVQPGGSLKLSCAASGFTFSTYTMSWVRQTPEKRLEWVAYISSGGGTTYYPDTVKGRFTISRDNARNTLYLQMNSLKSEDTAMYYCATPRIGTGFAYWGQGTLVTVSA VL: DIVLSQSPASLALSLGQRATISCRASASVEYYGTSLMHWYQQKPGQPPKLLIYEASNVESGVPARFSGSGSGTDFSLNIHPVEEDDLAIYFCQQSRKAPYTFGGGTKLEIK",MFI,[1],860
same,MFI,[2],675
same,MFI,[3],768
same,MFI,[4],975
same,MFI,[5],540
"chimeric antibody c203B6[IgG1] (antibody, V domains shown, Mouse variable domains fused to human IgG1 / Ckappa constant domains) VH: EVKLVESGGGLVQPGGSLKLSCAASGFTFSTYTMSWVRQTPEKRLEWVAYISSGGGTTYYPDTVKGRFTISRDNARNTLYLQMNSLKSEDTAMYYCATPRIGTGFAYWGQGTLVTVSA VL: DIVLSQSPASLALSLGQRATISCRASASVEYYGTSLMHWYQQKPGQPPKLLIYEASNVESGVPARFSGSGSGTDFSLNIHPVEEDDLAIYFCQQSRKAPYTFGGGTKLEIKR",antibody concentration at which the binding plateau was reached,[7],5 µg/mL
same,IC50,[8],0.71 µg/mL
"humanized antibody Hz214B2VLVar2VHVar3 (G1) (antibody, human IgG1, kappa, V domains shown, also called VH Var3 with VL Var2) VH: QVQLVQSGAEVKKPGASVKLSCKASGYTFTSSSMHWVRQAPGQGLEWMGEIHPNSGNTNNAQKFQGRATLTVDTSISTAYVELSRLRSDDTAVYYCARARSFYYAMDCWGQGTSVTVSS VL: NIQMTQSPSSLSASVGDRVTITCRASENVGTYVNWYQQKPGKAPKLLIYGASNLQSGVPSRFSGSGSATDFTLTISSLQPEDFATYYCGQTYSFPYTFGQGTKLEIKR",binding result,[9],binds
"humanized 214B2, VL Var1 with VH Var3 (IgG1) (antibody, V domains shown, also called Hz214B2VLVar1 with Hz214B2VHVar3 (G1)) VH: QVQLVQSGAEVKKPGASVKLSCKASGYTFTSSSMHWVRQAPGQGLEWMGEIHPNSGNTNNAQKFQGRATLTVDTSISTAYVELSRLRSDDTAVYYCARARSFYYAMDCWGQGTSVTVSS VL: DIQMTQSPSSLSASVGDRVTITCRASENVGTYLNWYQQKPGKAPKLLIYGASSLQSGVPSRFSGSGSGTDFTLTISSLQPEDFATYYCGQTYSFPYTFGQGTKLEIKR",binding result,[9],binds
"humanized antibody Hz214B2VLVar3VHVar2 (G1) (antibody, human IgG1, kappa, V domains shown, also called VH Var2 with VL Var3) VH: QVQLVQSGAEVKKPGASVKVSCKASGYTFTSSSMHWVRQAPGQGLEWMGEIHPNSGNTNNAQKFQGRVTLTVDTSISTAYMELSRLRSDDTAVYYCARARSFYYAMDCWGQGTSVTVSS VL: NIVMTQSPSSLSASVGDRVTITCKASENVGTYVSWYQQKPGKAPKLLIYGASNLYSGVPSRFSGSGSATDFTLTISSLQPEDFATYHCGQTYSFPYTFGQGTKLEIKR",binding result,[9],binds
"humanized antibody Hz214B2VLVar4VHVar4 (G1) (antibody, human IgG1, kappa, V domains shown, also called Hz214B2VHVar4VLVar4; Hz214B2VHVar4VLVar4 (G1)) VH: QVQLVQSGAEVKKPGASVKLSCKASGYTFTSSSMHWVRQAPGQGLEWMGEIHPNSGNTNNNEKFKGRATLTVDTSISTAYVELSRLRSDDTAVYYCARARSFYYAMDCWGQGTSVTVSS VL: NIVMTQSPSSLSASVGDRVTITCKASENVGTYVSWYQQKPGKAPKLLIYGASNRYTGVPSRFSGSGSATDFTLTISSLQPEDFATYHCGQTYSFPYTFGQGTKLEIKR",binding result,[9],binds
"humanized antibody Hz214B2VLVar3VHVar3 (G1) (antibody, human IgG1, kappa, V domains shown, also called Hz214B2VHVar3VLVar3; Hz214B2VHVar3VLVar3 (G1)) VH: QVQLVQSGAEVKKPGASVKLSCKASGYTFTSSSMHWVRQAPGQGLEWMGEIHPNSGNTNNAQKFQGRATLTVDTSISTAYVELSRLRSDDTAVYYCARARSFYYAMDCWGQGTSVTVSS VL: NIVMTQSPSSLSASVGDRVTITCKASENVGTYVSWYQQKPGKAPKLLIYGASNLYSGVPSRFSGSGSATDFTLTISSLQPEDFATYHCGQTYSFPYTFGQGTKLEIKR",binding result,[9],binds
"humanized antibody Hz214B2VLVar2VHVar2 (G1) (antibody, human IgG1, kappa, V domains shown, also called VH Var2 with VL Var2) VH: QVQLVQSGAEVKKPGASVKVSCKASGYTFTSSSMHWVRQAPGQGLEWMGEIHPNSGNTNNAQKFQGRVTLTVDTSISTAYMELSRLRSDDTAVYYCARARSFYYAMDCWGQGTSVTVSS VL: NIQMTQSPSSLSASVGDRVTITCRASENVGTYVNWYQQKPGKAPKLLIYGASNLQSGVPSRFSGSGSATDFTLTISSLQPEDFATYYCGQTYSFPYTFGQGTKLEIKR",binding result,[9],binds
"humanized 214B2, VL Var1 with VH Var2 (IgG1) (antibody, V domains shown, also called Hz214B2VLVar1 with Hz214B2VHVar2 (G1)) VH: QVQLVQSGAEVKKPGASVKVSCKASGYTFTSSSMHWVRQAPGQGLEWMGEIHPNSGNTNNAQKFQGRVTLTVDTSISTAYMELSRLRSDDTAVYYCARARSFYYAMDCWGQGTSVTVSS VL: DIQMTQSPSSLSASVGDRVTITCRASENVGTYLNWYQQKPGKAPKLLIYGASSLQSGVPSRFSGSGSGTDFTLTISSLQPEDFATYYCGQTYSFPYTFGQGTKLEIKR",binding result,[9],binds
